Biological target: T1, PAPSS2 (Homo sapiens, UniProt O95340)
T1 construct: the wild-type full-length open reading frame (ORF) of the human PAPSS2 cDNA; made in house; host or cells: COS-1 or HepG2 cells, transient transfection; cytosol not purified
T1 sequence (O95340 1-614 R426C): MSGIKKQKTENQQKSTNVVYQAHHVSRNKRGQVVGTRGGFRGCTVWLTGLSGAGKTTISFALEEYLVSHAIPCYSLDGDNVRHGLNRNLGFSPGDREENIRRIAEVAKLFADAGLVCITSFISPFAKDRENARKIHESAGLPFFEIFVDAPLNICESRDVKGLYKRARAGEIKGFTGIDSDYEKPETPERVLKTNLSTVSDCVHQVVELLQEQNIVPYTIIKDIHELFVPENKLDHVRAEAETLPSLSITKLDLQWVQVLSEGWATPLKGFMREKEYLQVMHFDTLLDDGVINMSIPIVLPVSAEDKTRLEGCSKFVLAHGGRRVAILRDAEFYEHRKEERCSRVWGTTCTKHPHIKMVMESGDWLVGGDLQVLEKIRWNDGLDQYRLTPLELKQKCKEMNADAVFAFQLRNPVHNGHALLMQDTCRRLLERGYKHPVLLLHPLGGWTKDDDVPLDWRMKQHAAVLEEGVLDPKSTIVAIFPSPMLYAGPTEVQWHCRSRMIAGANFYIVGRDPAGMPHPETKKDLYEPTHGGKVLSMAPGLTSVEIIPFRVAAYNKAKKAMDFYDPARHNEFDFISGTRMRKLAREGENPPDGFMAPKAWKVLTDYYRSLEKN
Experiment: PAPSS activity of cells transfected with wild type PAPSS2 construct versus empty vector / endogenous activity
Format: biochemical
Conditions: loxP-modified p91023(b) vector, COS-1 cells
Procedure: Initial expression studies were performed with the commercially available pcDNA4/HisMax-E (pcDNA4) acceptor vector (Invitrogen). Specifically, the pUni donor vector, with and without the PAPSS2 cDNA insert, was combined with the pcDNA4 acceptor vector by Cre recombinase through the loxP sites present in both donor and acceptor vectors. The resultant fusion constructs (pUni/pcDNA4) then were used to transfect either COS-1 or HepG2 cells. However, the construct with the wild type PAPSS2 cDNA insert expressed only about 2-fold higher PAPSS activity in both COS-1 and HepG2 cells than did the control “empty” pUni-pcDNA4. This low signal/noise ratio was due in part to the high levels of endogenous PAPSS activity in mammalian cells. Obviously, this situation would have made it difficult to study the functional significance of PAPSS2 non-synonymous cSNPs.
The loxP site required for Cre recombinase-mediated recombination thus was adapted for cloning into the p91023(b) cloning site so a recombination approach could be used to clone PAPSS2 cDNAs into this vector. A 133 base pair pcDNA4 DNA segment (nucleotides 1080–1212) containing the N-terminal His-tag and the loxP site was amplified by PCR, and this amplicon was ligated into the EcoRI site of p91023(b). As a result, the loxP-modified p91023(b) acceptor vector was also able to add an N-terminal His-tag to the expressed protein. […]

B1: wild type: reference human PAPSS2 polypeptide (SEQ ID NO:9, GenBank AF091242), recombinantly expressed in COS-1 cells (protein, listed as Homo sapiens)
chain: MSGIKKQKTENQQKSTNVVYQAHHVSRNKRGQVVGTRGGFRGCTVWLTGLSGAGKTTISFALEEYLVSHAIPCYSLDGDNVRHGLNRNLGFSPGDREENIRRIAEVAKLFADAGLVCITSFISPFAKDRENARKIHESAGLPFFEIFVDAPLNICESRDVKGLYKRARAGEIKGFTGIDSDYEKPETPERVLKTNLSTVSDCVHQVVELLQEQNIVPYTIIKDIHELFVPENKLDHVRAEAETLPSLSITKLDLQWVQVLSEGWATPLKGFMREKEYLQVMHFDTLLDDGVINMSIPIVLPVSAEDKTRLEGCSKFVLAHGGRRVAILRDAEFYEHRKEERCSRVWGTTCTKHPHIKMVMESGDWLVGGDLQVLEKIRWNDGLDQYRLTPLELKQKCKEMNADAVFAFQLRNPVHNGHALLMQDTCRRLLERGYKHPVLLLHPLGGWTKDDDVPLDWRMKQHAAVLEEGVLDPKSTIVAIFPSPMLYAGPTEVQWHCRSRMIAGANFYIVGRDPAGMPHPETKKDLYEPTHGGKVLSMAPGLTSVEIIPFRVAAYNKAKKAMDFYDPARHNEFDFISGTRMRKLAREGENPPDGFMAPKAWKVLTDYYRSLEKN
increase in PAPSS activity over basal endogenous activity: greater than 7 fold
